Source: the DeepSol protein solubility set

test: soluble on expression in E. coli; label from the status in PepcDB or PDB records

Row | Sequence | soluble on expression in E. coli
1 | MQMLRNVHPVTEIQVSANMAEVRARVDFKVGAKSNIDAEILSFHGLQSDKEHVAVIFKSADTTQEAPLVRMHSECLTGDVFHSSRCDCGEQLEETITRMGQSGGIILYLRQEGRGIGLYNKIDAYRLQSQGMNTYEANNHLGFGDDLRDFTEAAQMLQALGVKKIRLVTNNPKKIRELQEHGIEIVEVVHTSAHIKDGNENYLKAKVSHGKHQLKL | not soluble
2 | MQMQPKVGQFRYYPSVGSLNTYLTNMLEKIRVELPDIQRISFALYDEKKDSIKTCADSSPVSHDFVHYELPLANLPSLQQSKESGALRIIHDLANQAKSHTPHNRWLLEQQYCSSLVKPVFDQHTFVGFLFFNASMSHYFSASVVERLETYLSLIQQSICGEYALIHQLVDHVHQIETQSPEHWLHIKQHKERISRYARIIALDVADQYALDDELIENISQFATCHDLGKLALPADLLQKRASLANHEKEQVHNHIEYGIDLLNEVIAKLGTPHHPCLAVLREIMAYHHEFLDGSGYPFGLVSDQIPIPARIIAVANIFDALTAHRPYKQAQSIPHALLELEKMVSDGKLDRHCVNALRENQEELKEIVARFPEQDPKDQGITH | not soluble
3 | MQPTPSEYARTPVRIEMQRSKERNSMVYKEMYNDAQRKYSEALDRISKLTDAYLREKAEVENFIKIKDREVEMSKKNANEKLLKDFLPVLDSIDAAIQAEKDNNLIRIRDQMLGVLSRYGLKPIKAEGSKFDPYLHEVVGVTADGEDGMVKYEVQRGYTLNDGVLRTSKVIVVKR | not soluble
4 | MQQDVSREHTINNGSSMADHDEHPIEQKEFYMLIGLDIGGTKIEICVLDKQGSMLYRQRIATPDNYSQFVDCVCSLIVDAEQATQPVDSIGIGLPGAVSPVTGLIKNANCTFLNGQDLSSDLQYRLGREVKLANDANCFALSEAIDGAGKESMVVFGAILGTGCGGSIVVNRQVLVGPNAICGEWGHNPLPGYHLEQDGAARYCYCGRQNCIERFISGSGFQDSYQALTGECITASEIMKRYKQQEPEAIHCYTQLIDHMARSFAGLVNVLDPDIIVLGGGLSNIDELYRDLPTATARHVFSDSAQVHFAKAVFGDSSGIRGAAWL | not soluble
5 | MQQEALSFLSSSLPSLHHNFPSLSRLRFNNFPALSFKPNTSSSSSSFFKSPDIPSLSSTTTTTTTTETLESSIHEKLIYLDSLGIDFLTLINRHPPLLSTALSAVESVVDYMTTPPINFTLQDFRRLVSMCPELLTSPLTSHTIPVITFLLREVGVDSIFDLRQALRRRPRLLACSVDHQLRPTLYFLQRIGILDPHKHTYLLSCSVDNKLVPRIDYFEKLGFSRRSATAMFKRFPQLFNYSIAENYEPKLKYLMVEMGRDVREVLEFPQYFSFSLENRIKPRHEACAAKGVRFPLPVMLKTNEAGFRDTLEVCCDSSPPLKTSRLVTVQKDS | not soluble
6 | MQQLQNVIETAFERRADITPANVDTVTREAITHVIDLLDTGALRVAEKIDGQWVTHQWLKKAVLLSFRINDNQVMEGAETRYYDKVPMKFAGYDEARFQREGFRVVPPATVRKGAFIARNTVLMPSYVNIGAFVDEGTMVDTWATVGSCAQIGKNVHLSGGVGIGGVLEPLQANPTIIEDNCFVGARSEVVEGVIVEEGSVISMGVFIGQSTRIYDRETGEVHYGRVPAGSVVVSGNLPSKDGSYSLYCAVIVKKVDAKTRSKVGINELLRTID | not soluble
7 | MQRARCYLIGETAVVLELEPPVTLASQKRIWRLAQRLVDMPNVVEAIPGMNNITVILRNPESLALDAIERLQRWWEESEALEPESRFIEIPVVYGGAGGPDLAVVAAHCGLSEKQVVELHSSVEYVVWFLGFQPGFPYLGSLPEQLHTPRRAEPRLLVPAGSVGIGGPQTGVYPLATPGGWQLIGHTSLSLFDPARDEPILLRPGDSVRFVPQKEGVC | soluble
8 | MQRLTSARLFKGAFNVGQKRATNASAGAAAVASRPQALPQPHQASTMTPPAAAPAVAAPQASLTRSASLVAPPSTSAPPSGAAPPMPKKKIIRRIIKRKKASAGVATGEAVHRAAAEAVSQTAAPAAPSEPAFAAATGAQPPRRGLAMLNAIRKHPEGSIEEQPQVVTEKHSEEMATAQEQYHEHTHDRHPAIQETEEAHEHHYHHDAASEKVTSSRYNAASAEAETDATGGSDAMDDATSNGSSSSRKTAMVKGYRIDEVGALCSSSDAMFARRLPSGGCQFFAWPGTPLSVASSAIVSMPDTIRTVHAVFGRAGTPIDIVMDIDAQVPQEYWTMSKIRVYQRKVLDDVLTPLKEEIEKIGEEIETQVVLQSPNLKKASFHVHTRLKDAAFADFYSLHGFLFRFQDRLPNVDLQIYRPNGMLRMFSCMKENRTSAIIVFDESKWNIGFPGGKVSDEQAALHSICVRDPSTFSRVLTFEAPRQSNMPAYGGSKGACGDGSEGALRPPQVLLPLTEKEAIESASRWLRQATEVEVGEWRTWIGLGLCAYRVAYHFRNARNLPRPAMAEMLDAWTEASRKCPLKFHSGECEARWAAFDPEKLGSQSDWWSAYKRLGRLEVPMREAMEREAAFAARCASRYQAAPAAEVPFAPEPPQSAAAVGSVTSASRKMKQQKKAFRRA | not soluble
9 | MQSLTTALENLLRHLSQEIPATPGIRVIDIPFPLKDAFDALSWLASQQTYPQFYWQQRNGDEEAVVLGAITRFTSLDQAQRFLRQHPEHADLRIWGLNAFDPSQGNLLLPRLEWRRCGGKATLRLTLFSESSLQHDAIQAKEFIATLVSIKPLPGLHLTTTREQHWPDKTGWTQLIELATKTIAEGELDKVVLARATDLHFASPVNAAAMMAASRRLNLNCYHFYMAFDGENAFLGSSPERLWRRRDKALRTEALAGTVANNPDDKQAQQLGEWLMADDKNQRENMLVVEDICQRLQADTQTLDVLPPQVLRLRKVQHLRRCIWTSLNKADDVICLHQLQPTAAVAGLPRDLARQFIARHEPFTREWYAGSAGYLSLQQSEFCVSLRSAKISGNVVRLYAGAGIVRGSDPEQEWQEIDNKAAGLRTLLQME | soluble
10 | MQSVNRKSNKGATANIDAQEPFSVLLMGIDTGDLGRTEQGRSDTTMVVTINPKENKSTMISLDRDILTDIVGNDTQDKLNHAYAFGGAEMAINTVQELLDIPIHHYVSINMKGLKDLIDAVGGIEVDNTIGEFTLDGITVPAGKIKLDGTTGLAYARMRHEDPEGDVGRQRRQREVVEKIVRKVMSFDGVSKYRKILDAVEANVKTDLTWDDMMDIQSKYLSAFKTIDSEQLQGYSATIDDIYYQVLDPNSLYKTQTTLRKQLGLKEHASEREKDLAFYNQFSYAVTDTALIGESGDSSANSSTSSSSTADTTAGQTEYNGNTQQAAEGTYDPNTYVDPNAYTDPNAYADPNTYVDPNAPQYLEHHHHHH | soluble
11 | MQTASVPAGIAERRTRAWAPYIDAKLGFRNHWYPVRLSAEVAEASPVPVQLLGEKVLLNRVDGVVHAIADRCLHRGVTLSDKVECYSKATISCWYHGWTYRWDNGKLVDILTNPTSVQIGRHALKTYPVREEKGLVFLFVGDQEPHDLAEDVPPGFLDADLAVHGQHRVVDANWRMGVENGFDAGHVFIHKSSILLDGNDIALPLGFAPGDPEQLTRSVTGEGAPKGVFDLLGEHSVPIFEATIEGQPAIQGHMGSKMVAISISVWLPGVLKVDPFPDPTLTQFEWYVPIDEGHHLYLQMLGRRVGSEEEARSFEAEFREKWVELALNGFNDDDILARRSMEPFYADDRGWREEVLFESDRAIIEWRRLASQYNRGIQTRDVRHHHHHH | soluble
12 | MQTEFLTGAPTRSAAFPVTGGDWGTAGILQTPTARMNDAGEASLSMSHVSPYTRLNFALQPLDWLEIGFRYTDVSNQPYGPVSLSGTQSYKDKSIDAKIRLWRESAYLPDVAVGFRDIAGSGLFSGEYLVASKRTGPFDWSVGLGWGYMGARGNLRNPLSMISRRFDDRANSATPNGGELGYGSWFRGRVSPFGGVQYQTPDERLILKAEYDGNDYRHEPFGQVLKERSPFNFGAVYRATRNIDLSVGFERGTRVMFGVSLHGNLKRATMPKLGNPPPVPVTQPAANAGPRTHAAGAPTRGGRSAVASTPRIEGASPSPFDRDWSDTVAQLQAQTNWHVRSIRALGMDLVIEFDDVDAFYLQDQIDRIATILNRDAPLNVRTFHVVALTHGVPVADYQVQRTQWFASRTRALVPSEVAPATTLGRPLTNQSIDMLPPLFEQRPRAFVLSVGPGYQQTLGGPNGFLLYQISANAYGELRMPGGAWLGGELNVGLVDNYGKFTYTADSKLPRVRTYLREYLTTSRVTLPLLQLTKIGRLGNDQFYSVYGGLLESMFAGVGVEWLYRPAHSRLAIGVDVNAVRQRGFRQDFSMRGYKTLTGHVTAYWDTGWQGVQINLSVGQYLAKDKGATLDISRRFRNGVVIGAYATKTNVSPAQFGEGSFDKGIYVTIPFDAMMTRSSSSIANLRWNPVTRDGGAKLDRRYPLYDLTDMGERRSLWYAPPDGAVSPLEHHHHHH | not soluble
13 | MQTPKPTLELLTCDAAYRENPTALFHQVCGDRPATLLLESADIDSKDDLKSLLLVDSALRITALGDTVTIQALSDNGASLLPLLDTALPAGVENDVLPAGRVLRFPPVSPLLDENARLCSLSVFDAFRLLQGVVNIPTQEREAMFFGGLFAYDLVAGFEALPHLEAGNNCPDYCFYLAETLMVIDHQKKSTRIQASLFTASDREKQRLNARLAYLSQQLTQPAPPLPVTPVPDMRCECNQSDDAFGAVVRQLQKAIRAGEIFQVVPSRRFSLPCPSPLAAYYVLKKSNPSPYMFFMQDNDFTLFGASPESSLKYDAASRQIEIYPIAGTRPRGRRADGTLDRDLDSRIELDMRTDHKELSEHLMLVDLARNDLARICTPGSRYVADLTKVDRYSYVMHLVSRVVGELRHDLDALHAYRACMNMGTLSGAPKVRAMQLIADAEGQRRGSYGGAVGYFTAHGDLDTCIVIRSALVENGIATVQAGAGIVLDSVPQSEADETRNKARAVLRAIATAHHAQETF | soluble
14 | MQTSDLLKKVRRIEIKARGLSRQIFAGQYHSAFRGRGMAFSEVREYTVGDDVRDIDWNVTARYARPYVKVFEEERELTVMLMVDMSGSLSFGTEVETKRELTAEVAATLAFSAIQNNDKIGVLFFTDRIEKYVPPAKGKKHILYIIRELLEFRPQSRATDLSVPLSYLTRLVKKRCTAFLISDFQSEKDSYEKTLLMSARKHDIVAIRIFDRREADLPNVGLMRFRDAETGQTHWVDTADSSVRKAYADAYERRQVALAVLLKRCGVDTTEIRTGQDFVQQLLILFKKRS | not soluble
15 | MQVDINVNVVEKPTGAIMFGAGYSDREGIILNGSIAQNNILGTGNFLSLQVNTGSVNKVISASFNNPYYTINGVSLGLEAFKRDINTRSLSSVGMFNTDTTGANIRFGIPVAENDIVSLGLGYEHTKIDLRDDSPQRFKDFVDQFGKTSNNLPITLSWARDRRNSAIWTTSGMTQRLFGEFGLPFGDLNYYKVSYEQRWFFPVTKMFTLMLNGEVGVGDGYSDKPLPFFKNFFAGGFNSVRGYNINTLGPRDSDDRVLGGSKRIVGNIEVLFPVPFMKEDKSVRLSAFADGGTIVNSFSGLGFDDFRYSAGLAATWISPMGPLKFSVAQPLNNQSGDKLQRFQFQFGQTFLEHHHHHH | not soluble
16 | MQVSKRKSLCKICGNPAFGNHFGVLSCRACAAFFRRTNVDGETFCPIGNCKIDKHGKFYCKKCRLRICLEAGMDANKFQHDRDLISTSTSESSDSSGSFSFSQRSKVPKSMANFLGRPAFILSCEPDKASKVKTIVDVTFLINQAFDIFGNVDRKRFSSNSNLGRMTKKFEDLQNEKSSNLSTIKVLGLKESMIFWEQDFLRTARWLSHFDEFQELPLSIRMQILKVAWILWGRLDKLVKTANERKNQQLNQNFYMIGKDVGIDIGNFEVDVSWCTNYSKEQLAYYLDCHHDEPFNIIVDAISDLKPSDMELNFMLLELCLAHAGKQHQGDVLMFTDRLLEVVSNELHDYYQSEQISNYSSRITKMMKINNLIRRNLFERLERQAVAKVFNIISVHFSHPDMFCNAGF | not soluble
17 | MQYCELDLSGQWLDTVYCEENFSDFVFIKFLNPSQFEEKIYCYTLHITKRTLENKRLLLYYEDEFKKHGHDINELVGDGIILRSCWNPRQ | soluble
